Positions count from the first letter of the chain named.
T1: GFP-9S library array, motif 4 ND N98G;D124S (synthetic construct, N98G;D124S)
T1 chain: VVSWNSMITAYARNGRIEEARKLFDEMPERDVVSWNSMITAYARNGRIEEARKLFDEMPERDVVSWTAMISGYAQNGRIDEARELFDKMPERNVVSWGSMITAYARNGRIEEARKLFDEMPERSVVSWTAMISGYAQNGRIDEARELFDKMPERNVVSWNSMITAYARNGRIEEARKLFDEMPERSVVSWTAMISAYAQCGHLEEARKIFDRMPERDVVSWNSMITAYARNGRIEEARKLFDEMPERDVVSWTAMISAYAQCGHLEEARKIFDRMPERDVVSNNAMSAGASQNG

T2: GFP-9S library array, motif 4 ND N98S;D124N (synthetic construct, N98S;D124N)
T2 chain: T1 chain with G98S, S124N

T3: GFP-9S library array, motif 4 ND N98P;D124H (synthetic construct, N98P;D124H)
T3 chain: T1 chain with G98P, S124H

T4: GFP-9S library array, motif 4 ND N98R;D124N (synthetic construct, N98R;D124N)
T4 chain: T1 chain with G98R, S124N

T5: GFP-9S library array, motif 4 ND N98V;D124A (synthetic construct, N98V;D124A)
T5 chain: T1 chain with G98V, S124A

B1: IR-rpoA-U (ssRNA)
RNA: AUUAUACGUGA
B2: Cy5-rpoA-G (ssRNA)
RNA: AUUAGACGUGA
B3: IR-rpoA-A (ssRNA)
RNA: AUUAAACGUGA
B4: Cy5-rpoA (ssRNA)
RNA: AUUACACGUGA

How the values were obtained:
Experiment in all cases: high-throughput RNA pulldown from lysate on Ni-NTA beads; HRP: 50 mM Tris pH 8, 150 mM NaCl, 1 mM beta-mercaptoethanol, 50 ug/ml BSA, 3 ug/ml yeast RNA, 0.5% heparin; ITC and FP: Tris pH 8, 200 mM KCl, 5% glycerol; MST: 50 mM Tris pH 8, 200 mM NaCl, 1 mM DTT, BSA, heparin, 0.05% Tween 20
Settings in all cases: tags: N-terminal His-eGFP
[1] = target: T1, GFP-9S library array, motif 4 ND …
[2] = target: T2, GFP-9S library array, motif 4 ND …
[3] = target: T3, GFP-9S library array, motif 4 ND …
[4] = target: T4, GFP-9S library array, motif 4 ND …
[5] = target: T5, GFP-9S library array, motif 4 ND …

Binder	Kd ([1]; label: 5' IRDye 800CW)	Kd ([2]; label: 5' IRDye 800CW)	Kd ([3]; label: 5' IRDye 800CW)	Kd ([4]; label: 5' IRDye 800CW)	Kd ([5]; label: 5' IRDye 800CW)	Kd ([1]; label: 5' Cy5)	Kd ([2]; label: 5' Cy5)	Kd ([3]; label: 5' Cy5)	Kd ([4]; label: 5' Cy5)	Kd ([5]; label: 5' Cy5)
B1	749 nM	272 nM	143 nM	95.9 nM	71.8 nM	–	–	–	–	–
B2	–	–	–	–	–	549 nM	296 nM	143 nM	118 nM	74.1 nM
B3	564 nM	50.8 nM	332 nM	200 nM	80.7 nM	–	–	–	–	–
B4	–	–	–	–	–	629 nM	235 nM	94.4 nM	98 nM	64.4 nM
